The values that follow come from patent publication US20260242478A1 (published 2026).

Test [1] addresses T1, Anti-CD28 Fab (SEQ ID NOs: 696, 697).
T1 construct: Biotinylated and captured on neutravidin coated plates in the phage ELISA
Put plainly: clonal phage ELISA on captured anti-CD28 Fab; wells pre-incubated with CD28 antigen as competitor.
T1 sequence (VH, as listed by the source, chain 1 of 2): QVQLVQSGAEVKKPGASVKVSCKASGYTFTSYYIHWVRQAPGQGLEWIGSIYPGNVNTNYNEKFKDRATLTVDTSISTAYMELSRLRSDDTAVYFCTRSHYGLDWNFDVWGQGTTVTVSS
T1 sequence (VL, as listed by the source, chain 2 of 2): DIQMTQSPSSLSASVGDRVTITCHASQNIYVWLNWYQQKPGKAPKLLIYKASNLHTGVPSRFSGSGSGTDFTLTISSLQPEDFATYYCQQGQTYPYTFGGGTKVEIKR
Method: (§1) After panning, phage infected bacteria were plated out and colonies picked into 96 well blocks. Clonal phage was then amplified and separated from bacterial cells via centrifugation.
(§2) Clonal phage were harvested as crude supematants and screened via standard ELISAs. […] Prior to the addition of clonal phage, wells were incubated with blocking buffer and CD28 antigen or blocking buffer alone. Without washing or aspirating, clonal phage supematants were then added to the wells and incubated for a short time. Wells were then washed followed by detection of bound phage using a horse radish conjugated anti-M13 antibody. Clonal phage of interest were then sent for sequence analysis.

The target is the same in test [2]. Put plainly: clonal phage ELISA; biotinylated anti-CD28 Fab on neutravidin plate, bound phage detected with anti-M13 HRP. For orientation: ELISA stands for enzyme-linked immunosorbent assay.
Target sequence in this assay (VH, as listed by the source, chain 1 of 2): as the sequence (VH, as listed by the source, chain 1 of 2) above
Target sequence in this assay (VL, as listed by the source, chain 2 of 2): as the sequence (VL, as listed by the source, chain 2 of 2) above
Method: as §1, §2
Test [3] has as its target Anti-CD28 Fab (SEQ ID NOs: 696, 697). In words: phage binding ELISA on captured anti-CD28 Fab; competitor CD28 antigen pre-incubated in the wells.
Target sequence in this assay (VH, as listed by the source, chain 1 of 2): as the sequence (VH, as listed by the source, chain 1 of 2) above
Target sequence in this assay (VL, as listed by the source, chain 2 of 2): as the sequence (VL, as listed by the source, chain 2 of 2) above
Method: as §1, §2
The target is the same in test [4]. In words: phage binding ELISA; biotinylated anti-CD28 Fab on neutravidin plate, clonal phage supernatant, anti-M13 HRP.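 Note: crude clonal phage supernatants screened after wells were preincubated either with CD28 antigen in blocking buffer or with blocking buffer only, phage added without washing.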
Target sequence in this assay (VH, as listed by the source, chain 1 of 2): as the sequence (VH, as listed by the source, chain 1 of 2) above
Target sequence in this assay (VL, as listed by the source, chain 2 of 2): as the sequence (VL, as listed by the source, chain 2 of 2) above
Method: as §1, §2
In test [5] the target is T2, Anti-CD28 Fab (SEQ ID NOs: 696, 697).
T2 construct: In the phage ELISA the Fab was biotinylated and captured on neutravidin coated plates
In words: phage ELISA; captured anti-CD28 Fab pre-incubated with CD28 antigen as competitor, anti-M13 HRP.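 Note: crude clonal phage supernatants added without washing after CD28 pre-incubation, bound phage detected with HRP anti-M13 antibody, reference wells got blocking buffer lacking CD28.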
T2 sequence (VH, as listed by the source, chain 1 of 2): as the sequence (VH, as listed by the source, chain 1 of 2) above
T2 sequence (VL, as listed by the source, chain 2 of 2): as the sequence (VL, as listed by the source, chain 2 of 2) above
Method: as §1, §2

Test [6] has the same target. In words: phage ELISA; biotinylated anti-CD28 Fab on neutravidin plate, clonal phage supernatant, anti-M13 HRP.
Target sequence in this assay (VH, as listed by the source, chain 1 of 2): as the sequence (VH, as listed by the source, chain 1 of 2) above
Target sequence in this assay (VL, as listed by the source, chain 2 of 2): as the sequence (VL, as listed by the source, chain 2 of 2) above
Method: as §1, §2

Where no end group is shown, it is not given here.

B1: Phage-1183 (peptide)
peptide: YCEGHLWEYLAKCL
With B1, the “Phage binding ELISA, Anti-CD28 Fab signal in the presence of CD28” value in test [1] is 0.05. Besides, in test [2], the “Phage binding ELISA, Anti-CD28 Fab signal” value came out at 1.1.

B2: Phage-1181 (peptide)
peptide: YCEGHSSLYLEKCL
modifications: cysteine pairing not given here; also: displayed on phage by fusion to pIII, linker and pIII sequence not given here
notes: Clonal phage of the Peptide-87 library; not shown: fused to the pIII filament of the bacteriophage
Turning to B2, the “Anti-CD28 Fab signal in the presence of CD28” value in test [3] stood at 0.08. For the same molecule, in test [4], the “Anti-CD28 Fab (SEQ ID NOs: 696, 697) signal” value came out at 1.11.

B3: Phage-1185 (peptide)
peptide: YCDGHTKEYMWKCL
Turning to B3, the “Phage binding ELISA, Anti-CD28 Fab signal in the presence of CD28” value in test [1] was found to be 0.06. Besides, the “Phage binding ELISA, Anti-CD28 Fab signal” value in test [2] was found to be 1.1.

B4: Phage-1179 (peptide)
peptide: YCAGHLPQYMHKCL
modifications: cysteine pairing not given here; also: displayed on phage by fusion to pIII, linker and pIII sequence not given here
notes: as for B2
As for B4, the “Anti-CD28 Fab signal in the presence of CD28” value in test [3] was 0.08. Moreover, the “Anti-CD28 Fab (SEQ ID NOs: 696, 697) signal” value in test [4] came out at 1.11.

B5: Phage-1177 (peptide)
peptide: YCEGHAEQYMKKCL
modifications: cysteine pairing not given here; also: displayed on phage by fusion to pIII, linker and pIII sequence not given here
notes: as for B2
For B5, the “Anti-CD28 Fab signal in the presence of CD28” value in test [3] stood at 0.07. In addition, the “Anti-CD28 Fab (SEQ ID NOs: 696, 697) signal” value in test [4] stood at 1.12.

B6: Phage-1193 (peptide)
peptide: YCEGHAQEYMAKCL
For the molecule B6, in test [1], the “Phage binding ELISA, Anti-CD28 Fab signal in the presence of CD28” value was found to be 0.08. In addition, in test [2], the “Phage binding ELISA, Anti-CD28 Fab signal” value came out at 1.06.

B7: Phage-1194 (peptide)
peptide: YCDGHAKVYIWKCL
Consider B7, for which the “Phage binding ELISA, Anti-CD28 Fab signal in the presence of CD28” value in test [1] was 0.08. In addition, the “Phage binding ELISA, Anti-CD28 Fab signal” value in test [2] worked out at 1.06.

B8: Phage-1200 (peptide)
peptide: YCDGHLPRYMEKCM
modifications: cysteine pairing not given here; also: displayed on phage by fusion to pIII, linker and pIII sequence not given here
Regarding B8, the “Anti-CD28 Fab signal in the presence of CD28 (phage binding ELISA)” value in test [5] came to 0.06. For the same molecule, in test [6], the “Anti-CD28 Fab signal (phage binding ELISA)” value turned out to be 1.05.

B9: Phage-1201 (peptide)
peptide: YCDGHSSAYIDKCL
modifications: cysteine pairing not given here; also: displayed on phage by fusion to pIII, linker and pIII sequence not given here
For B9, the “Anti-CD28 Fab signal in the presence of CD28 (phage binding ELISA)” value in test [5] turned out to be 0.06. Besides, in test [6], the “Anti-CD28 Fab signal (phage binding ELISA)” value came to 1.05.

B10: Phage-1191 (peptide)
peptide: YCDGHANAYIWKCL
Regarding B10, the “Phage binding ELISA, Anti-CD28 Fab signal in the presence of CD28” value in test [1] was 0.09. Further, the “Phage binding ELISA, Anti-CD28 Fab signal” value in test [2] came out at 1.07.

B11: Phage-1176 (peptide)
peptide: YCDGHEAEYMWKCL
modifications: cysteine pairing not given here; also: displayed on phage by fusion to pIII, linker and pIII sequence not given here
notes: as for B2
For B11, in test [3], the “Anti-CD28 Fab signal in the presence of CD28” value turned out to be 0.1. Further, the “Anti-CD28 Fab (SEQ ID NOs: 696, 697) signal” value in test [4] was 1.13.

B12: Phage-1203 (peptide)
peptide: YCDGHAPEFIRKCL
modifications: cysteine pairing not given here; also: displayed on phage by fusion to pIII, linker and pIII sequence not given here
Turning to B12, in test [5], the “Anti-CD28 Fab signal in the presence of CD28 (phage binding ELISA)” value worked out at 0.07. Besides, the “Anti-CD28 Fab signal (phage binding ELISA)” value in test [6] is 1.05.

B13: Phage-1202 (peptide)
peptide: YCEGHLPSYLAKCL
modifications: cysteine pairing not given here; also: displayed on phage by fusion to pIII, linker and pIII sequence not given here
With B13, the “Anti-CD28 Fab signal in the presence of CD28 (phage binding ELISA)” value in test [5] was 0.06. Moreover, the “Anti-CD28 Fab signal (phage binding ELISA)” value in test [6] came to 1.05.

B14: Phage-1198 (peptide)
peptide: YCEGHDVQYMQKCL
modifications: cysteine pairing not given here; also: displayed on phage by fusion to pIII, linker and pIII sequence not given here
On to B14, for which the “Anti-CD28 Fab signal in the presence of CD28 (phage binding ELISA)” value in test [5] amounted to 0.08. The “Anti-CD28 Fab signal (phage binding ELISA)” value in test [6] was found to be 1.06.

B15: Phage-1190 (peptide)
peptide: YCEGHSEMYMSKCL
For B15, in test [1], the “Phage binding ELISA, Anti-CD28 Fab signal in the presence of CD28” value worked out at 0.09. Further, the “Phage binding ELISA, Anti-CD28 Fab signal” value in test [2] came out at 1.07.

B16: Phage-1189 (peptide)
peptide: YCDGHSFHYMAKCL
In the case of B16, the “Phage binding ELISA, Anti-CD28 Fab signal in the presence of CD28” value in test [1] stood at 0.06. Moreover, the “Phage binding ELISA, Anti-CD28 Fab signal” value in test [2] is 1.08.

B17: Phage-1178 (peptide)
peptide: YCDGHVVEYMSKCL
modifications: cysteine pairing not given here; also: displayed on phage by fusion to pIII, linker and pIII sequence not given here
notes: as for B2
As to B17, the “Anti-CD28 Fab signal in the presence of CD28” value in test [3] was 0.08. Further, the “Anti-CD28 Fab (SEQ ID NOs: 696, 697) signal” value in test [4] was found to be 1.12.

B18: Phage-1175 (peptide)
peptide: YCVGHSEQYMAKCL
modifications: cysteine pairing not given here; also: displayed on phage by fusion to pIII, linker and pIII sequence not given here
notes: as for B2
For B18, the “Anti-CD28 Fab signal in the presence of CD28” value in test [3] was found to be 0.06. For the same molecule, the “Anti-CD28 Fab (SEQ ID NOs: 696, 697) signal” value in test [4] is 1.13.

B19: Phage-1192 (peptide)
peptide: YCEGHIPMYMLKCM
On to B19, for which the “Phage binding ELISA, Anti-CD28 Fab signal in the presence of CD28” value in test [1] was 0.09. For the same molecule, in test [2], the “Phage binding ELISA, Anti-CD28 Fab signal” value was determined as 1.06.

B20: Phage-1182 (peptide)
peptide: YCDGHAMEYMEKCL
With B20, the “Phage binding ELISA, Anti-CD28 Fab signal in the presence of CD28” value in test [1] came to 0.08. For the same molecule, the “Phage binding ELISA, Anti-CD28 Fab signal” value in test [2] turned out to be 1.11.

B21: Phage-1186 (peptide)
peptide: YCAGHAEEYMLKCL
For the molecule B21, the “Phage binding ELISA, Anti-CD28 Fab signal in the presence of CD28” value in test [1] worked out at 0.07. In addition, the “Phage binding ELISA, Anti-CD28 Fab signal” value in test [2] amounted to 1.09.

B22: Phage-1180 (peptide)
peptide: YCDGHIWPWIEKCL
modifications: cysteine pairing not given here; also: displayed on phage by fusion to pIII, linker and pIII sequence not given here
notes: as for B2
Turning to B22, the “Anti-CD28 Fab signal in the presence of CD28” value in test [3] stood at 0.11. In test [4], the “Anti-CD28 Fab (SEQ ID NOs: 696, 697) signal” value came to 1.11.

B23: Phage-1184 (peptide)
peptide: YCEGHMGEYMLKCL
Regarding B23, the “Phage binding ELISA, Anti-CD28 Fab signal in the presence of CD28” value in test [1] came to 0.06. Also, the “Phage binding ELISA, Anti-CD28 Fab signal” value in test [2] was 1.1.

B24: Phage-1199 (peptide)
peptide: YCEGHSSEYLGKCL
modifications: cysteine pairing not given here; also: displayed on phage by fusion to pIII, linker and pIII sequence not given here
As to B24, the “Anti-CD28 Fab signal in the presence of CD28 (phage binding ELISA)” value in test [5] worked out at 0.09. In addition, in test [6], the “Anti-CD28 Fab signal (phage binding ELISA)” value amounted to 1.05.

B25: Phage-1195 (peptide)
peptide: YCEGHIPAYMAKCL
modifications: cysteine pairing not given here; also: displayed on phage by fusion to pIII, linker and pIII sequence not given here
As for B25, in test [5], the “Anti-CD28 Fab signal in the presence of CD28 (phage binding ELISA)” value came out at 0.08. The “Anti-CD28 Fab signal (phage binding ELISA)” value in test [6] worked out at 1.06.

B26: Phage-1187 (peptide)
peptide: YCEGHSAEYIGKCL
On to B26, for which, in test [1], the “Phage binding ELISA, Anti-CD28 Fab signal in the presence of CD28” value turned out to be 0.07. Besides, the “Phage binding ELISA, Anti-CD28 Fab signal” value in test [2] is 1.08.

B27: Phage-1196 (peptide)
peptide: YCDGHAPIYMQKCL
modifications: cysteine pairing not given here; also: displayed on phage by fusion to pIII, linker and pIII sequence not given here
Regarding B27, the “Anti-CD28 Fab signal in the presence of CD28 (phage binding ELISA)” value in test [5] was found to be 0.06. In addition, in test [6], the “Anti-CD28 Fab signal (phage binding ELISA)” value was 1.06.

B28: Phage-1188 (peptide)
peptide: YCVGHLPEYMLECM
On to B28, for which the “Phage binding ELISA, Anti-CD28 Fab signal in the presence of CD28” value in test [1] was 0.07. For the same molecule, the “Phage binding ELISA, Anti-CD28 Fab signal” value in test [2] turned out to be 1.08.

B29: Phage-1197 (peptide)
peptide: YCEGHLWEYMKKCL
modifications: cysteine pairing not given here; also: displayed on phage by fusion to pIII, linker and pIII sequence not given here
Turning to B29, in test [5], the “Anti-CD28 Fab signal in the presence of CD28 (phage binding ELISA)” value stood at 0.07. For the same molecule, in test [6], the “Anti-CD28 Fab signal (phage binding ELISA)” value stood at 1.06.
